Source: PMC8580058 (ACS catalysis, 2019)
Positions count from the first letter of the chain named. In names and notes the source's numbering stands.

B1: 6-phosphogluconate dehydrogenase (6PGDH) (Thermotoga maritima MSB8) (protein)
chain: MKSHIGLIGLAVMGQNLALNIARKGYKVSVYNRTAQRTEEFVKNRVTNEEIEPHYDIESFVKSLERPRKIILMVKAGKPVDDTISQLLPHLEPGDLIIDGGNSHYMDTERRFKELSEKGILFLGMGVSGGEYGALHGPSLMPGGSREAYNLVEEILLEIAAKTEDGPCCTYVGERSAGHFVKMVHNGIEYAIMQAIAEVYHIMRDVLSLSSEEMSSIFEEWNRGELSSFLVEITYKILRKKDEETGKPMVDVILDKAEQKGTGKWTSQAALDLGIPTPSINLAVVERVISHFKDIRTRLSKLYNKRRSATQGSEEFLRDLRNSLFFAMFMAFSQGMWLIAEASKEFGYGVSLSEVLRIWKGGCIIRAKLIDTLRRYISNENAYLLENEEVMNLLKGKIDSLKNILKASIENEIPVPVLSSSYNYFMSLTEERLPANLIQAQRDFFGAHTFERVDREGVFHINWEEGEIG
B2: 6-phosphogluconate dehydrogenase (6PGDH) (Thermotoga maritima MSB8; A11G/R33I/T34I) (protein)
chain: B1 chain with A11G, R33I, T34I
B3: 6-phosphogluconate dehydrogenase (6PGDH) (Thermotoga maritima MSB8; R33I/T34I) (protein)
chain: B1 chain with R33I, T34I
B4: 6-phosphogluconate dehydrogenase (6PGDH) (Thermotoga maritima MSB8; A11G/D82L/Q86L/R33I/T34I/T83L) (protein)
chain: B1 chain with A11G, R33I, T34I, D82L, T83L, Q86L
B5: 6-phosphogluconate dehydrogenase (6PGDH) (Thermotoga maritima MSB8; A11G/A447V/D294V/D82L/I120F/K27R/N387S/Q86L/R33I/T34I/T83L/Y383C) (protein)
chain: MKSHIGLIGLGVMGQNLALNIARKGYRVSVYNIIAQRTEEFVKNRVTNEEIEPHYDIESFVKSLERPRKIILMVKAGKPVDLLISLLLPHLEPGDLIIDGGNSHYMDTERRFKELSEKGFLFLGMGVSGGEYGALHGPSLMPGGSREAYNLVEEILLEIAAKTEDGPCCTYVGERSAGHFVKMVHNGIEYAIMQAIAEVYHIMRDVLSLSSEEMSSIFEEWNRGELSSFLVEITYKILRKKDEETGKPMVDVILDKAEQKGTGKWTSQAALDLGIPTPSINLAVVERVISHFKVIRTRLSKLYNKRRSATQGSEEFLRDLRNSLFFAMFMAFSQGMWLIAEASKEFGYGVSLSEVLRIWKGGCIIRAKLIDTLRRYISNENACLLESEEVMNLLKGKIDSLKNILKASIENEIPVPVLSSSYNYFMSLTEERLPANLIQAQRDFFGVHTFERVDREGVFHINWEEGEIG
B6: 6-phosphogluconate dehydrogenase (6PGDH) (Thermotoga maritima MSB8; A11G/A447V/D294V/D82L/F326S/F60Y/I120F/K118N/K27R/N387S/Q86L/R33I/T34I/T83L/Y383C) (protein)
chain: B5 chain with F60Y, K118N, F326S

Substrate: NC(=O)c1ccc[n+]([C@@H]2O[C@H](COP(=O)([O-])O)[C@@H](O)[C@H]2O)c1
Assay: steady-state kinetics of purified enzyme
Assay type: biochemical, Thermotoga maritima
Conditions: apparent constants; co-substrate 6-phosphogluconate; assay details in supplement

Molecule | Km | kcat | kcat/Km
B1 | 30.6 ± 1.7 mM | 1.3 ± 0.1 s⁻¹ | 42 M⁻¹ s⁻¹
B2 | 20.7 ± 0.7 mM | 10.2 ± 0.2 s⁻¹ | 490 M⁻¹ s⁻¹
B3 | 37.9 ± 3.6 mM | 1.7 ± 0.1 s⁻¹ | 46 M⁻¹ s⁻¹
B4 | 27.5 ± 1.2 mM | 19.3 ± 0.4 s⁻¹ | 700 M⁻¹ s⁻¹
B5 | 15.1 ± 0.6 mM | 18.9 ± 0.4 s⁻¹ | 1250 M⁻¹ s⁻¹
B6 | 16.0 ± 1.1 mM | 25.8 ± 0.8 s⁻¹ | 1620 M⁻¹ s⁻¹

Substrate: NC(=O)c1ccc[n+]([C@@H]2O[C@H](COP(=O)(O)OP(=O)(O)OC[C@H]3O[C@@H](n4cnc5c(N)ncnc54)[C@H](OP(=O)(O)O)[C@@H]3O)[C@@H](O)[C@H]2O)c1
Assay: steady-state kinetics of purified enzyme
Assay type: biochemical, Thermotoga maritima
Conditions: apparent constants; co-substrate 6-phosphogluconate; assay details in supplement

Molecule | Km | kcat | kcat/Km
B1 | 0.0012 ± 0.0001 mM | 15.9 ± 0.2 s⁻¹ | 1.34e+07 M⁻¹ s⁻¹
B2 | 2.1 ± 0.1 mM | 28.3 ± 0.6 s⁻¹ | 13200 M⁻¹ s⁻¹
B3 | 11.5 ± 1.1 mM | 14.8 ± 0.7 s⁻¹ | 1300 M⁻¹ s⁻¹
B4 | 0.39 ± 0.02 mM | 21.1 ± 0.3 s⁻¹ | 53700 M⁻¹ s⁻¹
B5 | 0.22 ± 0.01 mM | 21.9 ± 0.2 s⁻¹ | 101000 M⁻¹ s⁻¹
B6 | 0.21 ± 0.01 mM | 23.6 ± 0.3 s⁻¹ | 113000 M⁻¹ s⁻¹

Target: glucose-6-phosphate dehydrogenase (G6PDH) (Thermotoga maritima, UniProt Q9X0N9)
Assay: specific activity of purified enzyme
Assay type: biochemical
Conditions: co-substrate glucose 6-phosphate

glucose-6-phosphate dehydrogenase (G6PDH), sequence (Q9X0N9 whole entry): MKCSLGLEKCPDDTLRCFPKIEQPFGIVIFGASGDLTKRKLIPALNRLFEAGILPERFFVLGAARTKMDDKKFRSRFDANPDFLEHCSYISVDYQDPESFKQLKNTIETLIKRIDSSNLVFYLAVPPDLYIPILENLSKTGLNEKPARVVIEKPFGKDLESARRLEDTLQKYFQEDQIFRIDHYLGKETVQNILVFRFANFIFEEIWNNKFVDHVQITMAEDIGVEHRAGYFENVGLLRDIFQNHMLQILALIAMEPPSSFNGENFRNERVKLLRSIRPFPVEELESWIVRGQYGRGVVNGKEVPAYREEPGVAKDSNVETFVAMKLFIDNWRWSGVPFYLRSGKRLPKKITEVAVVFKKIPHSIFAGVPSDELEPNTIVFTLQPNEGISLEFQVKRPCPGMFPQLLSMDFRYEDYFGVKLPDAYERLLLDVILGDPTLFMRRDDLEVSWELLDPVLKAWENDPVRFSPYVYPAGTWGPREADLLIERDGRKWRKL

Molecule | specific activity of purified enzyme
NC(=O)c1ccc[n+]([C@@H]2O[C@H](COP(=O)([O-])O)[C@@H](O)[C@H]2O)c1 [NMN^+] | color intensities of colonies positively correlated with the specific activities of the purified dehydrogenases on NMN^+
